Measurements as given in US20180291082A1 (IMMATICS BIOTECHNOLOGIES, published 2018).

The binders below were run against T1, HLA-B*07:02 (human) (assay: UV-ligand exchange, anti-b2m ELISA; exchange yield grade (+ >10%, ++ >20%, +++ >50, ++++ >75%)).
T1 construct: Peptide-receptive MHC monomer made by UV cleavage of a UV-sensitive peptide
From the text: (§1) Candidate peptides for T cell based therapies according to the present invention were further tested for their MHC binding capacity (affinity). The individual peptide-MHC complexes were produced by UV-ligand exchange, where a UV-sensitive peptide is cleaved upon UV-irradiation, and exchanged with the peptide of interest as analyzed. Only peptide candidates that can effectively bind and stabilize the peptide-receptive MHC molecules prevent dissociation of the MHC complexes. To determine the yield of the exchange reaction, an ELISA was performed based on the detection of the light chain (β2m) of stabilized MHC complexes. The assay was performed as generally described in Rodenko et al. (Rodenko et al., 2006).
(§2) 96 well MAXISorp plates (NUNC) were coated over night with 2 ug/ml streptavidin in PBS at room temperature, washed 4× and blocked for 1 h at 37° C. in 2% BSA containing blocking buffer. Refolded HLA-A*02:01/MLA-001 monomers served as standards, covering the range of 15-500 ng/ml. Peptide-MHC monomers of the UV-exchange reaction were diluted 100-fold in blocking buffer. Samples were incubated for 1 h at 37° C., washed four times, incubated with 2 ug/ml HRP conjugated anti-β2m for 1 h at 37° C., washed again and detected with TMB solution that is stopped with […]. Absorption was measured at 450 nm. Candidate peptides that show a high exchange yield (preferably higher than 50%, most preferred higher than 75%) are generally preferred for a generation and production of antibodies or fragments thereof, and/or T cell receptors or fragments thereof, as they show sufficient avidity to the MHC molecules and prevent dissociation of the MHC complexes.

Binder	peptide exchange yield [%]
FELPTGAGLQL	20 to 50
IPEPSAQQL	20 to 50
RVPSYTLIL	50 to 75
SPGDKRLAA	50 to 75
SPIKVPLLL	50 to 75
VPDGVSKVL	20 to 50
YPLTGDTRL	20 to 50
KPSSKALGTSL	50 to 75
VVHPRTLLL	20 to 50
IPSRLLAIL	50 to 75
APAAVPSAPA	50 to 75
GPGTRLSL	20 to 50
FPYPYAERL	20 to 50
HPQVVILSL	50 to 75
SPSPGKDPTL	20 to 50
VPERGEPEL	20 to 50
FPAHPSLLL	20 to 50

Binder	peptide exchange yield [%]
RPAPADSAL	50 to 75
NPYEGRVEV	20 to 50
MPMISIPRV	20 to 50
RPASSLRP	20 to 50
ISTPSEVSTPL	20 to 50
TPIAKVSEL	50 to 75
HDPDVGSNSL	20 to 50
YPSEVEHMF	20 to 50
IPTDKLLVI	20 to 50
FPTEVTPHAF	20 to 50
SPMWHVQQL	50 to 75
APKLFAVAF	50 to 75
KPAHYPLIAL	50 to 75
MVPSAGQLALF	20 to 50
VPSLQRLML	50 to 75
HPIETLVDIF	20 to 50

What follows are binders tested against T2, HLA-A*01:01 (human) in the same assay as above.
T2 construct: Peptide-receptive MHC monomer made by UV cleavage of a UV-sensitive peptide
From the text: as §1, §2

Binder	peptide exchange yield [%]
VSNGKWLLY	50 to 75
LPSPTDSNFY	20 to 50
STDEITTRY	50 to 75
STDIGALMY	50 to 75
TLEQVQLYY	50 to 75
TASEDVFQY	10 to 20
YTHHLFIFY	10 to 20
LMKEVMEHY	20 to 50
EVLDSHIHAY	10 to 20
LDSHIHAY	10 to 20
LTDYINANY	50 to 75
SVTDLEMPHY	10 to 20
ASSTDSASYY	50 to 75
VLDSHIHAY	50 to 75
VTDLEMPHY	> 75
ATVGYFIFY	20 to 50

Binder	peptide exchange yield [%]
FADKIHLAY	50 to 75
ITDFNNIRY	50 to 75
FASDLLHLY	20 to 50
YAAYIIHAY	50 to 75
LTDSFPLKV	50 to 75
FSDKELAAY	> 75
RSPNNFLSY	20 to 50
NSDLKYNAL	20 to 50
YSDLHAFYY	> 75
RSDPGGGGLAY	50 to 75
YSHAAGQGTGLY	50 to 75
SILGSDVRVPSY	20 to 50
VLDLSTNVY	50 to 75
LITGDPKAAYDY	20 to 50
TPVTEFSLNTY	20 to 50
FITAQNHGY	20 to 50
